“And” between values parts separate entries of the source, which are not always exact repeats. Equal entries are not always repeated.
Assays:
Jac1_(L106) = molecular target: T1, Jac1_(L106) (S. cerevisiae, UniProt P53193 11-184, L106 to Ala); assay: pull-down
T1 sequence (looked up): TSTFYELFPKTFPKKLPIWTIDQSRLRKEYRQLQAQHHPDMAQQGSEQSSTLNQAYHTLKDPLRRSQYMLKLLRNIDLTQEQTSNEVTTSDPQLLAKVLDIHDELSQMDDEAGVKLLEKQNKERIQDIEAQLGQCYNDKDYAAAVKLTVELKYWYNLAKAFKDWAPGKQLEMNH

[1] = molecular target: T2, Jac1 (wild type), His-tagged (S. cerevisiae, UniProt P53193 11-184); assay: pull-down
T2 sequence (looked up): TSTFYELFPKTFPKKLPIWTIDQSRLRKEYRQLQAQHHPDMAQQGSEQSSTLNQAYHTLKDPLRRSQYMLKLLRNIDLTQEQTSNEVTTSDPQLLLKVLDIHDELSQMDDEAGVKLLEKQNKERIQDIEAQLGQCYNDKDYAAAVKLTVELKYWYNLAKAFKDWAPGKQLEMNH

Isu1His = molecular target: T3, Isu1His (S. cerevisiae, UniProt Q03020 28-165); assay: cell-based or functional assay
T3 sequence (looked up): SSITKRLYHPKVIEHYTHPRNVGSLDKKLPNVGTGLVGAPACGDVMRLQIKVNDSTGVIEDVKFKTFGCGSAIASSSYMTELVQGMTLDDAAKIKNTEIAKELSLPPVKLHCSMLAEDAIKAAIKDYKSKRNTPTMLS

B1: Isu1-GST (natural protein, S. cerevisiae, UniProt Q03020 28-165, looked up)
chain: SSITKRLYHPKVIEHYTHPRNVGSLDKKLPNVGTGLVGAPACGDVMRLQIKVNDSTGVIEDVKFKTFGCGSAIASSSYMTELVQGMTLDDAAKIKNTEIAKELSLPPVKLHCSMLAEDAIKAAIKDYKSKRNTPTMLS
Kd (Jac1_(L106)): 250 ± 70 nM
Kd [1]: 690 nM and 800 nM

B2: Jac1Y (natural protein, S. cerevisiae, UniProt P53193 11-184, looked up)
chain: TSTFYELFPKTFPKKLPIWTIDQSRLRKEYRQLQAQHHPDMAQQGSEQSSTLNQAYHTLKDPLRRSQYMLKLLRNIDLTQEQTSNEVTTSDPQLLLKVLDIHDELSQMDDEAGVKLLEKQNKERIQDIEAQLGQCYNDKDYAAAVKLTVELKAWYNLAKAFKDWAPGKQLEMNH
stimulation of Ssq1 ATPase activity: increase of C0.5 against wt (Isu1His): ~15 fold

B3: Jac1LLL (natural protein, S. cerevisiae, UniProt P53193 11-184, looked up)
chain: TSTFYELFPKTFPKKLPIWTIDQSRLRKEYRQLQAQHHPDMAQQGSEQSSTLNQAYHTLKDPLRRSQYMLKLLRNIDLTQEQTSNEVTTSDPQLAAKVADIHDELSQMDDEAGVKLLEKQNKERIQDIEAQLGQCYNDKDYAAAVKLTVELKYWYNLAKAFKDWAPGKQLEMNH
stimulation of Ssq1 ATPase activity: C0.5 compared to the wt control (Isu1His): ~24 fold
